Test results published in IntAct's records for PubMed 23756461.

B1: Cell division protein FtsZ (Escherichia coli (strain K12)), P0A9A6 (parent)
chain: MFEPMELTNDAVIKVIGVGGGGGNAVEHMVRERIEGVEFFAVNTDAQALRKTAVGQTIQIGSGITKGLGAGANPEVGRNAADEDRDALRAALEGADMVFIAAGMGGGTGTGAAPVVAEVAKDLGILTVAVVTKPFNFEGKKRMAFAEQGITELSKHVDSLITIPNDKLLKVLGRGISLLDAFGAANDVLKGAVQGIAELITRPGLMNVDFADVRTVMSEMGYAMMGSGVASGEDRAEEAAEMAISSPLLEDIDLSGARGVLVNITAGFDLRLDEFETVGNTIRAFASDNATVVIGTSLDPDMNDELRVTVVATGIGMDKRPEITLVTNKQVQQPVMDRYQQHGMAPLTQEQKPVAKVVNDNAPQTAKEPDYLDIPAFLRKQAD
B2: Cell shape-determining protein MreB (Escherichia coli (strain K12)), P0A9X4 (parent)
chain: MLKKFRGMFSNDLSIDLGTANTLIYVKGQGIVLNEPSVVAIRQDRAGSPKSVAAVGHDAKQMLGRTPGNIAAIRPMKDGVIADFFVTEKMLQHFIKQVHSNSFMRPSPRVLVCVPVGATQVERRAIRESAQGAGAREVFLIEEPMAAAIGAGLPVSEATGSMVVDIGGGTTEVAVISLNGVVYSSSVRIGGDRFDEAIINYVRRNYGSLIGEATAERIKHEIGSAYPGDEVREIEVRGRNLAEGVPRGFTLNSNEILEALQEPLTGIVSAVMVALEQCPPELASDISERGMVLTGGGALLRNLDRLLMEETGIPVVVAEDPLTCVARGGGKALEMIDMHGGDLFSEE

Variants of: B1
Conditions: with mreb_ecoli mreB

| Variant | effect of a mutation on the interaction |
| --- | --- |
| MFEPMELTNDAVIKVIGVGGGGGNAVEHMVRERIEGVEFFAVNTDAQALRKTAVGQTIQIGSGITKGLGAGANPEVGRNAADEDRDALRAALEGADMVFIAAGMGGGTGTGAAPVVAEVAKDLGILTVAVVTKPFNFEGKKRMAFAEQGITELSKHVDSLITIPNDKLLKVLGRGISLLDAFGAANDVLKGAVQGIAELITRQGLMNVDFADVRTVMSEMGYAMMGSGVASGEDRAEEAAEMAISSPLLEDIDLSGARGVLVNITAGFDLRLDEFETVGNTIRAFASDNATVVIGTSLDPDMNDELRVTVVATGIGMDKRPEITLVTNKQVQQPVMDRYQQHGMAPLTQEQKPVAKVVNDNAPQTAKEPDYLDIPAFLRKQAD [P203Q] | disrupting interaction |

Variants of: B2
Conditions: with ftsz_ecoli ftsZ

| Variant | effect of a mutation on the interaction |
| --- | --- |
| D285A | disrupting interaction |
